Data published in patent US12427210B2, “Compounds comprising a fibroblast activation protein ligand and use thereof” (priority 2019, dated 2025).
pKi: −log10 of the molar value.

Legend:
mu (MOP) (h) (human) = mu (MOP) (h) (human) (UniProt P35372); experiment: radioligand displacement, reference compound of the assay (Ki Ref)
delta (DOP) (h) (human) = delta (DOP) (h) (human) (UniProt P41143); experiment: as above

Substance | pKi (mu (MOP) (h) (human)) | pKi (delta (DOP) (h) (human))
DAMGO (peptide) | 9.43 | –
DPDPE (peptide) | – | 8.92
